Where “and” joins values, the source holds several entries; their conditions need not be identical. Equal entries are not always repeated.
Target: the molecule itself

B1: FLAG-tagged soluble Lassa virus glycoprotein 1 (sGP1-FLAG) (natural protein)
chain: TSLYKGVYELQTLELNMETLNMTMPLSCTKNNSHHYIMVGNETGLELTLTNTSIINHKFCNLSDAHKKNLYDHALMSIISTFHLSIPNFNQYEAMSCDFNGGKISVQYNLSHSYAGDAANHCGTVANGVLQTFMRMAWGGSYIALDSGRGNWDCIMTSYQYLIIQNTTWEDHCQFSRPSPIGYLGLLSQRTRDIYISRRLL
  stoichiometry N: 2 and 3

Reference: paper PMC2645378 (Virology Journal, 2008)
